Measurements as given in US20190374506A1 (BETH ISREAL DEACONESS MEDICAL CENTER, published 2019).

Biological target: T1, HA-PTEN (human, UniProt P60484 1-403)
T1 construct: Expressed in DU145 cells and immunoprecipitated with anti-PTEN antibody for mass spectrometry; also called exogenous PTEN; pcDNA3-HA-PTEN; not shown: HA tag
Assay: anti-PTEN immunoprecipitation from DU145 cells transfected with HA-PTEN, SDS-PAGE, mass-spectrometric peptide sequencing of the bands (association in the precipitate)
Excerpt: FIG. 2A is a Western blot. Lysates from DU145 cells transfected with HA-PTEN were immunoprecipitated with an anti-PTEN antibody followed by mass-spectrometric peptide sequencing. WWP1 and NEDD4-1 were identified.
In order to identify the E3 ligases that induce PTEN atypical K27-linked poly-ubiquitination, exogenous PTEN was immunoprecipitated from DU145 cells, followed by identification of the proteins that interacted with PTEN by mass spectrometry (FIG. 2A; FIG. 18).

Binder | binding result
Huntingtin-interacting protein 1-related protein (other) MNSIKNVPARVLSRRPGHSLEAEREQFDKTQAISISKAINTQEAPVKEKHARRIILGTHHEKGAFTFWSYAIGLPLPSSSILSWKFCHVLHKVLRDGHPNVLHDCQRYRSNIREIGDLWGHLHDRYGQLVNVYTKLLLTKISFHLKHPQFPAGLEVTDEVLEKAAGTDVNNIFQLTVEMFDYMDCELKLSESVFRQLNTAIAVSQMSSGQCRLAPLIQVIQDCSHLYHYTVKLLFKLHSCLPADTLQGHRDRFHEQFHSLRNFFRRASDMLYFKRLIQIPRLPEGPPNFLRASALAEHIKPVVVIPEEAPEDEEPENLIEISTGPPAGEPVVVADLFDQTFGPPNGSVKDDRDLQIESLKREVEMLRSELEKIKLEAQRYIAQLKSQVNALEGELEEQRKQKQKALVDNEQLRHELAQLRAAQLEGERSQGLREEAERKASATEARYNKLKEKHSELVHVHAELLRKNADTAKQLTVTQQSQEEVARVKEQLAFQVEQVKRESELKLEEKSDQLEKLKRELEAKAGELARAQEALSHTEQSKSELSSRLDTLSAEKDALSGAVRQREADLLAAQSLVRETEAALSREQQRSSQEQGELQGRLAERESQEQGLRQRLLDEQFAVLRGAAAEAAGILQDAVSKLDDPLHLRCTSSPDYLVSRAQEALDAVSTLEEGHAQYLTSLADASALVAALTRFSHLAADTIINGGATSHLAPTDPADRLIDTCRECGARALELMGQLQDQQALRHMQASLVRTPLQGILQLGQELKPKSLDVRQEELGAVVDKEMAATSAAIEDAVRRIEDMMNQARHASSGVKLEVNERILNSCTDLMKAIRLLVTTSTSLQKEIVESGRGAATQQEFYAKNSRWTEGLISASKAVGWGATQLVEAADKVVLHTGKYEELIVCSHEIAASTAQLVAASKVKANKHSPHLSRLQECSRTVNERAANVVASTKSGQEQIEDRDTMDFSGLSLIKLKKQEMETQVRVLELEKTLEAERMRLGELRKQHYVLAGASGSPGEEVAIRPSTAPRSVTTKKPPLAQKPSVAPRQDHQLDKKDGIYPAQLVNY | binds
Heterogeneous nuclear ribonucleoprotein U-like protein 1 (other) MDVRRLKVNELREELQRRGLDTRGLKAELAERLQAALEAEEPDDERELDADDEPGRPGHINEEVETEGGSELEGTAQPPPPGLQPHAEPGGYSGPDGHYAMDNITRQNQFYDTQVIKQENESGYERRPLEMEQQQAYRPEMKTEMKQGAPTSFLPPEASQLKPDRQQFQSRKRPYEENRGRGYFEHREDRRGRSPQPPAEEDEDDFDDTLVAIDTYNCDLHFKVARDRSSGYPLTIEGFAYLWSGARASYGVRRGRVCFEMKINEEISVKHLPSTEPDPHVVRIGWSLDSCSTQLGEEPFSYGYGGTGKKSTNSRFENYGDKFAENDVIGCFADFECGNDVELSFTKNGKWMGIAFRIQKEALGGQALYPHVLVKNCAVEFNFGQRAEPYCSVLPGFTFIQHLPLSERIRGTVGPKSKAECEILMMVGLPAAGKTTWAIKHAASNPSKKYNILGTNAIMDKMRVMGLRRQRNYAGRWDVLIQQATQCLNRLIQIAARKKRNYILDQTNVYGSAQRRKMRPFEGFQRKAIVICPTDEDLKDRTIKRTDEEGKDVPDHAVLEMKANFTLPDVGDFLDEVLFIELQREEADKLVRQYNEEGRKAGPPPEKRFDNRGGGGFRGRGGGGGFQRYENRGPPGGNRGGFQNRGGGSGGGGNYRGGFNRSGGGGYSQNRWGNNNRDNNNSNNRGSYNRAPQQQPPPQQPPPPQPPPQQPPPPPSYSPARNPPGASTYNKNSNIPGSSANTSTPTVSSYSPPQPSYSQPPYNQGGYSQGYTAPPPPPPPPPAYNYGSYGGYNPAPYTPPPPPTAQTYPQPSYNQYQQYAQQWNQYYQNQGQWPPYYGNYDYGSYSGNTQGGTSTQ | binds
Structural maintenance of chromosomes protein 3 (other) MYIKQVIIQGFRSYRDQTIVDPFSSKHNVIVGRNGSGKSNFFYAIQFVLSDEFSHLRPEQRLALLHEGTGPRVISAFVEIIFDNSDNRLPIDKEEVSLRRVIGAKKDQYFLDKKMVTKNDVMNLLESAGFSRSNPYYIVKQGKINQMATAPDSQRLKLLREVAGTRVYDERKEESISLMKETEGKREKINELLKYIEERLHTLEEEKEELAQYQKWDKMRRALEYTIYNQELNETRAKLDELSAKRETSGEKSRQLRDAQQDARDKMEDIERQVRELKTKISAMKEEKEQLSAERQEQIKQRTKLELKAKDLQDELAGNSEQRKRLLKERQKLLEKIEEKQKELAETEPKFNSVKEKEERGIARLAQATQERTDLYAKQGRGSQFTSKEERDKWIKKELKSLDQAINDKKRQIAAIHKDLEDTEANKEKNLEQYNKLDQDLNEVKARVEELDRKYYEVKNKKDELQSERNYLWREENAEQQALAAKREDLEKKQQLLRAATGKAILNGIDSINKVLDHFRRKGINQHVQNGYHGIVMNNFECEPAFYTCVEVTAGNRLFYHIVDSDEVSTKILMEFNKMNLPGEVTFLPLNKLDVRDTAYPETNDAIPMISKLRYNPRFDKAFKHVFGKTLICRSMEVSTQLARAFTMDCITLEGDQVSHRGALTGGYYDTRKSRLELQKDVRKAEEELGELEAKLNENLRRNIERINNEIDQLMNQMQQIETQQRKFKASRDSILSEMKMLKEKRQQSEKTFMPKQRSLQSLEASLHAMESTRESLKAELGTDLLSQLSLEDQKRVDALNDEIRQLQQENRQLLNERIKLEGIITRVETYLNENLRKRLDQVEQELNELRETEGGTVLTATTSELEAINKRVKDTMARSEDLDNSIDKTEAGIKELQKSMERWKNMEKEHMDAINHDTKELEKMTNRQGMLLKKKEECMKKIRELGSLPQEAFEKYQTLSLKQLFRKLEQCNTELKKYSHVNKKALDQFVNFSEQKEKLIKRQEELDRGYKSIMELMNVLELRKYEAIQLTFKQVSKNFSEVFQKLVPGGKATLVMKKGDVEGSQSQDEGEGSGESERGSGSQSSVPSVDQFTGVGIRVSFTGKQGEMREMQQLSGGQKSLVALALIFAIQKCDPAPFYLFDEIDQALDAQHRKAVSDMIMELAVHAQFITTTFRPELLESADKFYGVKFRNKVSHIDVITAEMAKDFVEDDTTHG | binds
Clustered mitochondria protein homolog (other) MLLNGDCPESLKKEAAAAEPPRENGLDEAGPGDETTGQEVIVIQDTGFSVKILAPGIEPFSLQVSPQEMVQEIHQVLMDREDTCHRTCFSLHLDGNVLDHFSELRSVEGLQEGSVLRVVEEPYTVREARIHVRHVRDLLKSLDPSDAFNGVDCNSLSFLSVFTDGDLGDSGKRKKGLEMDPIDCTPPEYILPGSRERPLCPLQPQNRDWKPLQCLKVLTMSGWNPPPGNRKMHGDLMYLFVITAEDRQVSITASTRGFYLNQSTAYHFNPKPASPRFLSHSLVELLNQISPTFKKNFAVLQKKRVQRHPFERIATPFQVYSWTAPQAEHAMDCVRAEDAYTSRLGYEEHIPGQTRDWNEELQTTRELPRKNLPERLLRERAIFKVHSDFTAAATRGAMAVIDGNVMAINPSEETKMQMFIWNNIFFSLGFDVRDHYKDFGGDVAAYVAPTNDLNGVRTYNAVDVEGLYTLGTVVVDYRGYRVTAQSIIPGILERDQEQSVIYGSIDFGKTVVSHPRYLELLERTSRPLKILRHQVLNDRDEEVELCSSVECKGIIGNDGRHYILDLLRTFPPDLNFLPVPGEELPEECARAGFPRAHRHKLCCLRQELVDAFVEHRYLLFMKLAALQLMQQNASQLETPSSLENGGPSSLESKSEDPPGQEAGSEEEGSSASGLAKVKELAETIAADDGTDPRSREVIRNACKAVGSISSTAFDIRFNPDIFSPGVRFPESCQDEVRDQKQLLKDAAAFLLSCQIPGLVKDCMEHAVLPVDGATLAEVMRQRGINMRYLGKVLELVLRSPARHQLDHVFKIGIGELITRSAKHIFKTYLQGVELSGLSAAISHFLNCFLSSYPNPVAHLPADELVSKKRNKRRKNRPPGAADNTAWAVMTPQELWKNICQEAKNYFDFDLECETVDQAVETYGLQKITLLREISLKTGIQVLLKEYSFDSRHKPAFTEEDVLNIFPVVKHVNPKASDAFHFFQSGQAKVQQGFLKEGCELINEALNLFNNVYGAMHVETCACLRLLARLHYIMGDYAEALSNQQKAVLMSERVMGTEHPNTIQEYMHLALYCFASSQLSTALSLLYRARYLMLLVFGEDHPEMALLDNNIGLVLHGVMEYDLSLRFLENALAVSTKYHGPKALKVALSHHLVARVYESKAEFRSALQHEKEGYTIYKTQLGEDHEKTKESSEYLKCLTQQAVALQRTMNEIYRNGSSANIPPLKFTAPSMASVLEQLNVINGILFIPLSQKDLENLKAEVARRHQLQEASRNRDRAEEPMATEPAPAGAPGDLGSQPPAAKDPSPSVQG | binds
